The values below come from the supplement of paper PMC5998384.

The test system of series [1] is HeLa Kyoto. Description: solubility in G1/S (NP-40 vs SDS abundance) (log2 ratio); higher = more soluble. To be noted: cell cycle stage: G1/S.
The test system of series [2] is HeLa Kyoto. The series can be described thus: melting temperature (median over replicates), in situ; higher = more thermally stable.
The test system of series [3] is HeLa Kyoto. Description: solubility change mitosis vs G1/S (difference of NP-40 vs SDS log2 ratios) (log2 ratio difference); higher = more soluble in mitosis.
For series [4], the system named is HeLa Kyoto. Description: thermal stability score vs G1/S (z-score of summed log2 fold changes over temperatures); higher = more thermally stable than in G1/S.
Setting [5] is: cell cycle stage: early G1 (4.5 h after nocodazole release).
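Throughout, for melting temperature (median over replicates), in situ: HeLa Kyoto cells synchronized by double thymidine or nocodazole block, proteins quantified by TMT10plex mass spectrometry, three independent biological replicates.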
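Throughout, for solubility change mitosis vs G1/S (difference of NP-40 vs SDS log2 ratios): synchronized HeLa Kyoto cells (double thymidine block for G1/S, nocodazole release for mitosis), protein amounts in NP-40 versus SDS lysates quantified by mass spectrometry, three biological replicates.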
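Throughout, for solubility in G1/S (NP-40 vs SDS abundance): HeLa Kyoto cells arrested at G1/S by double thymidine block, proteins quantified by TMT10plex mass spectrometry in mild NP-40 versus SDS extracts, three biological replicates.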
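Throughout, for thermal stability score vs G1/S (z-score of summed log2 fold changes over temperatures): synchronized HeLa Kyoto cells, proteins quantified by TMT10plex mass spectrometry, three biological replicates, mitosis taken 0.5 h after nocodazole release, G1/S directly after double thymidine block.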

As to “MAKPSHSSYVLQQLNNQREWGFLCDCCIAIDDIYFQAHKAVLAACSSYFRMFFMNHQHSTAQLNLSNMKISAECFDLILQFMYLGKIMTAPSSFEQFKVAMNYLQLYNVPDCLEDIQDADCSSSKCSSSASSKQNSKMIFGVRMYEDTVARNGNEANRWCAEPSSTVNTPHNREADEESLQLGNFPEPLFDVCKKSSVSKLSTPKERVSRRFGRSFTCDSCGFGFSCEKLLDEHVLTCTNRHLYQNTRSYHRIVDIRDGKDSNIKAEFGEKDSSKTFSAQTDKYRGDTSQAADDSASTTGSRKSSTVESEIASEEKSRAAERKRIIIKMEPEDIPTDELKDFNIIKVTDKDCNESTDNDELEDEPEEPFYRYYVEEDVSIKKSGRKTLKPRMSVSADERGGLENMRPPNNSSPVQEDAENASCELCGLTITEEDLSSHYLAKHIENICACGKCGQILVKGRQLQEHAQRCGEPQDLTMNGLGNTEEKMDLEENPDEQSEIRDMFVEMLDDFRDNHYQINSIQKKQLFKHSACPFRCPNCGQRFETENLVVEHMSSCLDQDMFKSAIMEENERDHRRKHFCNLCGKGFYQRCHLREHYTVHTKEKQFVCQTCGKQFLRERQLRLHNDMHKGMARYVCSICDQGNFRKHDHVRHMISHLSAGETICQVCFQIFPNNEQLEQHMDVHLYTCGICGAKFNLRKDMRSHYNAKHLKRT [ZBTB1]”, the “solubility in G1/S (log2)” value in series [1] is -0.369. For the same sequence, the melting temperature in series [2] (cell cycle stage: mitosis) was found to be 51 °C. Moreover, the “solubility change mitosis (log2)” value in series [3] is -0.0122. Moreover, the values for the thermal stability score in series [4] (setting [5]) and in series [4] (cell cycle stage: mitosis) were 2 and 3.65, respectively.
On to “MAKTYDYLFKLLLIGDSGVGKTCVLFRFSEDAFNSTFISTIGIDFKIRTIELDGKRIKLQIWDTAGQERFRTITTAYYRGAMGIMLVYDITNEKSFDNIRNWIRNIEEHASADVEKMILGNKCDVNDKRQVSKERGEKLALDYGIKFMETSAKANINVENAFFTLARDIKAKMDKKLEGNSPQGSNQGVKITPDQQKRSSFFRCVLL [RAB8A]”, for which the “solubility in G1/S (log2)” value in series [1] is -0.0996. In addition, the results for the melting temperature in series [2] (cell cycle stage: G1/S) and in series [2] (cell cycle stage: mitosis) were 56.7 °C and 55.4 °C, respectively. Moreover, in series [3], the “solubility change mitosis (log2)” value is -0.103. The values for the thermal stability score in series [4] (setting [5]) and in series [4] (cell cycle stage: mitosis) were 2.59 and 1.39, respectively.
Regarding “MALAARLWRLLPFRRGAAPGSRLPAGTSGSRGHCGPCRFRGFEVMGNPGTFKRGLLLSALSYLGFETYQVISQAAVVHATAKVEEILEQADYLYESGETEKLYQLLTQYKESEDAELLWRLARASRDVAQLSRTSEEEKKLLVYEALEYAKRALEKNESSFASHKWYAICLSDVGDYEGIKAKIANAYIIKEHFEKAIELNPKDATSIHLMGIWCYTFAEMPWYQRRIAKMLFATPPSSTYEKALGYFHRAEQVDPNFYSKNLLLLGKTYLKLHNKKLAAFWLMKAKDYPAHTEEDKQIQTEAAQLLTSFSEKN [RMDN1]”, the “solubility in G1/S (log2)” value in series [1] was 0.16. Moreover, the results for the melting temperature in series [2] (cell cycle stage: G1/S) and in series [2] (cell cycle stage: mitosis) were 52 °C and 52.9 °C, respectively. Besides, the “solubility change mitosis (log2)” value in series [3] amounted to 0.0519. Moreover, the thermal stability score in series [4] (setting [5]) was -0.229; in series [4] (cell cycle stage: mitosis), -1.17.
“MALASVLERPLPVNQRGFFGLGGRADLLDLGPGSLSDGLSLAAPGWGVPEEPGIEMLHGTTTLAFKFRHGVIVAADSRATAGAYIASQTVKKVIEINPYLLGTMAGGAADCSFWERLLARQCRIYELRNKERISVAAASKLLANMVYQYKGMGLSMGTMICGWDKRGPGLYYVDSEGNRISGATFSVGSGSVYAYGVMDRGYSYDLEVEQAYDLARRAIYQATYRDAYSGGAVNLYHVREDGWIRVSSDNVADLHEKYSGSTP [PSMB5]”: the “solubility in G1/S (log2)” value in series [1] was -0.00915. Further, the melting temperature in series [2] (cell cycle stage: G1/S) came out at 63.3 °C; in series [2] (cell cycle stage: mitosis), 61.5 °C. In addition, the “solubility change mitosis (log2)” value in series [3] was -0.142. The values for the thermal stability score in series [4] (setting [5]) and in series [4] (cell cycle stage: mitosis) were -2.01 and -3.9, respectively.
For “MALDFLAGCAGGVAGVLVGHPFDTVKVRLQVQSVEKPQYRGTLHCFKSIIKQESVLGLYKGLGSPLMGLTFINALVFGVQGNTLRALGHDSPLNQFLAGAAAGAIQCVICCPMELAKTRLQLQDAGPARTYKGSLDCLAQIYGHEGLRGVNRGMVSTLLRETPSFGVYFLTYDALTRALGCEPGDRLLVPKLLLAGGTSGIVSWLSTYPVDVVKSRLQADGLRGAPRYRGILDCVHQSYRAEGWRVFTRGLASTLLRAFPVNAATFATVTVVLTYARGEEAGPEGEAVPAAPAGPALAQPSSL [SLC25A29]”, in series [1], the “solubility in G1/S (log2)” value is 0.0296. The results for the melting temperature in series [2] (cell cycle stage: G1/S) and in series [2] (cell cycle stage: mitosis) were 53.2 °C and 52.3 °C, respectively. Moreover, the “solubility change mitosis (log2)” value in series [3] was -0.0388. The results for the thermal stability score in series [4] (setting [5]) and in series [4] (cell cycle stage: mitosis) were -0.402 and -0.997, respectively.
On to “MALKMVKGSIDRMFDKNLQDLVRGIRNHKEDEAKYISQCIDEIKQELKQDNIAVKANAVCKLTYLQMLGYDISWAAFNIIEVMSASKFTFKRIGYLAASQSFHEGTDVIMLTTNQIRKDLSSPSQYDTGVALTGLSCFVTPDLARDLANDIMTLMSHTKPYIRKKAVLIMYKVFLKYPESLRPAFPRLKEKLEDPDPGVQSAAVNVICELARRNPKNYLSLAPLFFKLMTSSTNNWVLIKIIKLFGALTPLEPRLGKKLIEPLTNLIHSTSAMSLLYECVNTVIAVLISLSSGMPNHSASIQLCVQKLRILIEDSDQNLKYLGLLAMSKILKTHPKSVQSHKDLILQCLDDKDESIRLRALDLLYGMVSKKNLMEIVKKLMTHVDKAEGTTYRDELLTKIIDICSQSNYQYITNFEWYISILVELTRLEGTRHGHLIAAQMLDVAIRVKAIRKFAVSQMSALLDSAHLLASSTQRNGICEVLYAAAWICGEFSEHLQEPHHTLEAMLRPRVTTLPGHIQAVYVQNVVKLYASILQQKEQAGEAEGAQAVTQLMVDRLPQFVQSADLEVQERASCILQLVKHIQKLQAKDVPVAEEVSALFAGELNPVAPKAQKKVPVPEGLDLDAWINEPLSDSESEDERPRAVFHEEEQRRPKHRPSEADEEELARRREARKQEQANNPFYIKSSPSPQKRYQDTPGVEHIPVVQIDLSVPLKVPGLPMSDQYVKLEEERRHRQKLEKDKRRKKRKEKEKKGKRRHSSLPTESDEDIAPAQQVDIVTEEMPENALPSDEDDKDPNDPYRALDIDLDKPLADSEKLPIQKHRNTETSKSPEKDVPMVEKKSKKPKKKEKKHKEKERDKEKKKEKEKKKSPKPKKKKHRKEKEERTKGKKKSKKQPPGSEEAAGEPVQNGAPEEEQLPPESSYSLLAENSYVKMTCDIRGSLQEDSQVTVAIVLENRSSSILKGMELSVLDSLNARMARPQGSSVHDGVPVPFQLPPGVSNEAQYVFTIQSIVMAQKLKGTLSFIAKNDEGATHEKLDFRLHFSCSSYLITTPCYSDAFAKLLESGDLSMSSIKVDGIRMSFQNLLAKICFHHHFSVVERVDSCASMYSRSIQGHHVCLLVKKGENSVSVDGKCSDSTLLSNLLEEMKATLAKC [AP3D1]”, for which the “solubility in G1/S (log2)” value in series [1] is -0.378. The figures for the melting temperature in series [2] (cell cycle stage: G1/S) and in series [2] (cell cycle stage: mitosis) were 50.8 °C and 50.6 °C, respectively. Further, the “solubility change mitosis (log2)” value in series [3] was -0.178. Moreover, the thermal stability score in series [4] (setting [5]) is -1.02; in series [4] (cell cycle stage: mitosis) it was -1.46.
